Assay results published in patent publication US20020193564A1, “Oligomeric chaperone proteins” (priority 1999, published 2002).
Where two headings read alike, the source gives them in different places.

Tests used:
[1] = test system: mutant Huntingdon exon 1-expressing PC12 and SH-SY5Y cells; assay: Inclusion formation and cell death, mutant Huntingdon exon 1; format: cell-based; settings: overexpression
Source text: These phenomena have been studied by transiently transfecting part of Huntingdon exon 1 in COS-7, PC12, and SH-SY5Y cells. Inclusion formation was not seen with constructs expressing 23 glutamines but was repeat length and time dependent for mutant constructs with 43-74 repeats. HSP70, HSP40, the 20S proteasome and ubiquitin colocalized with inclusions. […] Thus, inclusion formation may be enhanced in polyglutamine diseases, if the pathological process results in proteasome inhibition or a heat-shock response. […] To our knowledge, this is the first report of an HSP increasing aggregation of an abnormally folded protein in mammalian cells and expands the current understanding of the roles of HDJ-2yHSDJ in protein folding (See Wyttenbach, A. et al. (2000) Proc. Natl. Acad. Sci. USA 97, 2899-2903).
We have tested MC72 in the same system.

[2] = test system: bacteriophage λ; assay: Growth of bacteriophage λ in transformed groEL strains; format: cell-based, bacteriophage λ (b2cI) in E. coli; parameters: key to Growth of bacteriophage λ, SV1 (groEL^+) / Growth of bacteriophage λ, SV2 groEL44: +++: normal plaque-forming ability relative to wild-type groEL^+ strain, in terms of both number and size; ++: 5-fold fewer plaques relative to wild-type groEL^+ strain, or both; 10-fold fewer plaques, or plaque size reduced relative to wild-type groEL^+ strain, or both; +/−: 10^2-fold fewer plaques and plaque size reduced relative to wild-type groEL^+ strain; no visible plaques (<10^−4); settings: for Effect of over-expression on λ growth / plaque counts: SV1 (groE^+); for Growth of bacteriophage λ, SV1 (groEL^+) / Growth of bacteriophage λ, SV2 groEL44 / Growth of bacteriophage λ, SV3 GroEL59 / Growth of bacteriophage λ, SV6 groEL673: 30° C.
Source text: (§1) The E. Coli strains used in this study were: C41(DE3), a mutant of BL21(DE3) capable of expressing toxic genes (Miroux, B. & Walker, J. E. (1996) J. Mol. Biol. 260, 289-298); SV2 (B178groEL44), SV3 (B178groEL59) and SV6 (B178groEL673): isogenic strains carrying temperature-sensitive alleles of groEL; SV1(=B178) (Georgopoulos, C., Hendrix, R. W., Casjens, S. R. & Kaiser, A. D. (1973) J. Mol. Biol. 76, 45-60), A190 (ΔgroEL::kan^R) [pBAD-EL] (Ivic, A., Olden, D., Wallington, E. J. & Lund, P. A. (1997) Gene 194, 1-8), and TG1 (Gibson, T. J. (1984) Ph.D. thesis, University of Cambridge, U.K). Bacteriophage λb2cI (Zeilstra-Ryalls, J., Fayet, O., Baird, L. & Georgopoulos, C. (1993) J. Bacteriol. 175, 1134-1143) was used according to standard methods (Arber, W., Enquist, L., Hohn, B., Murray, N. E. & Murray, K. (1983) in Lambda II., ed. R. W. Hendrix, J. W. r., F. W. Stahl and R. A. Weisberg (Cold Spring Harbor Laboratory, Cold Spring Harbor, N.Y.), pp. 433-466); plaque formation was assayed at 30° C. T4D0, a derivative of bacteriophage T4 (Zeilstra-Ryalls, J., Fayet, O., Baird, L. & Georgopoulos, C. (1993) J. Bacteriol. 175, 1134-1143), was used according to standard methods (Karam, J. D. (1994) Molecular biology of bacteriophage T4. (American Society for Microbiology, Washington, D.C.)); plaque formation was assayed at 37° C.

[3] = test system: E. coli SV6 groEL673; assay: In vivo complementation of ts groEL673 at 43° C.; format: cell-based; settings: for Relative colony forming ability, SV6 groEL673: plasmids pJC, relative to growth at 30° C.
Protocol: (§2) In vivo Complementation Experiments.
(§3) Complementation experiments were performed by transforming electro-competent SV2 or SV6 cells with the pJC series of expression vectors and plating an aliquot of the transformation reactions directly at 43° C. The percentage of viable cells relative to the growth at 30° C. was determined. A representative number of clones which grew at 43° C. were incubated in absence of any selective markers at permissive temperature. After prolonged growth the loss of the pJC plasmids and the ts phenotype were verified. Each experiment was performed in duplicate. Plasmids carrying no groE genes or encoding the GroE proteins were used as negative or positive controls, respectively.

[4] = test system: E. coli SV2 groEL44; assay: In vivo complementation of ts groEL44 at 43° C.; format: cell-based; settings: for Relative colony forming ability, SV2 groEL44: plasmids pJC, relative to growth at 30° C.
Protocol: as §2, §3

[5] = test system: bacteriophage T4; assay: Growth of bacteriophage T4 in transformed groEL strains; format: cell-based, bacteriophage T4 (T4D0) in E. coli; parameters: key to Growth of bacteriophage T4, SV1 (groEL^+) / Growth of bacteriophage T4, SV2 groEL44 / Growth of bacteriophage T4, SV3 GroEL59 / Growth of bacteriophage T4, SV6 groEL673: +++: normal plaque-forming ability relative to wild-type groEL^+ strain, in terms of both number and size; ++: 5-fold fewer plaques relative to wild-type groEL^+ strain, or both; 10-fold fewer plaques, or plaque size reduced relative to wild-type groEL^+ strain, or both; +/−: 10^2-fold fewer plaques and plaque size reduced relative to wild-type groEL^+ strain; no visible plaques (<10^−4); settings: for Growth of bacteriophage T4, SV1 (groEL^+) / Growth of bacteriophage T4, SV2 groEL44 / Growth of bacteriophage T4, SV3 GroEL59 / Growth of bacteriophage T4, SV6 groEL673: 37° C.
Source text: as §1

[6] = test system: mutant Huntingdon exon 1-expressing PC12 and SH-SY5Y cells; settings: overexpression; cited from earlier work
[7] = test system: AI90 (ΔgroEL::kan^R) [pBADEL] E. coli strain; assay: Plating ability of AI90 on GroEL depletion at 37° C.; format: cell-based; parameters: key to Plating ability, 0.00 % L(+)arabinose: +++: growth identical to that in presence of 0.2% L(+)arabinose (100%), in terms of both number and size; ++: about 50% of the colonies relative to that in presence of 0.2% L(+)arabinose; +: about 30% of the colonies; +/−: ≦5% of the colonies and size reduced relative to that in presence of 0.2% L(+)arabinose; −: no visible colonies
Protocol: AI90 (ΔgroEL::kan^R) [pBAD-EL] cells were transformed with the pJC vector series. Transformants were selected at 37° C. on LB supplemented with 50 μg.ml^−1 of kanamycin, 120 μg.mL^−1 of ampicillin, 25 μg.mL^−1 of chloramphenicol and 0.2% L(+)arabinose. Depletion of GroEL protein was analysed at 37° C. by plating the same quantity of AI90 [PBAD-EL+pJC vectors] cells on LB plates containing 1% D(+)glucose or various amount of arabinose.
Each experiment was performed in triplicate. Plasmids carrying no groE genes or encoding the GroE proteins were used as negative or positive controls, respectively.

With yeast Hsp104: yeast chaperone Hsp104 the cell death [1] was “reduced” and the inclusion formation [1] was “reduced inclusion formation”.

For “GroES-EL: plasmid encoding the GroE proteins GroES and GroEL, positive control”, the “Effect of over-expression on λ growth / plaque counts” value [2] was “four-fold drop in plaques”, the “Relative colony forming ability, SV6 groEL673” value [3] was 1 and the “Relative colony forming ability, SV2 groEL44” value [4] was 1.

B1: sht-GroEL(193-335): short histidine tail minichaperone, GroEL residues 193-335 (protein, UniProt P0A6F5 193-335, looked up, fragment)
chain: MQFDRGYLSPYFINKPETGAVELESPFILLADKKISNIREMLPVLEAVAKAGKPLLIIAEDVEGEALATLVVNTMRGIVKVAAVKAPGFGDRRKAMLQDIATLTGGTVISEEIGMELEKATLEDLGQAKRVVINKDTTTIIDG
modifications: short His tag
In the case of B1, the “Complementation of the groEL673 defect in SV6” value [3] is reported as “less well”, the “Relative colony forming ability, SV6 groEL673” value [3] is reported as 0.03-0.05 and the “Complementation of the groEL44 defect in SV2” value [4] is reported as “complements the defect in SV2”. The “Relative colony forming ability, SV2 groEL44” value [4] was 0.05-0.09.

B2: GroES(1-97): co-chaperone of GroEL, seven membered ring of 10 kD subunits (protein, UniProt P0A6F9 1-97, looked up)
Co-chaperonin GroES: MNIRPLHDRVIVKRKEVETKSAGGIVLTGSAAAKSTRGEVLAVGNGRILENGEVKPLDVKVGDIVIFNDGYGVKSEKIDNEEVLIMSESDILAIVEA
For B2, the “Growth of bacteriophage T4, SV1 (groEL^+)” value [5] was “+++”, the “Growth of bacteriophage T4, SV2 groEL44” value [5] was “+++” and the “Growth of bacteriophage T4, SV3 GroEL59” value [5] was “+++”. The “Growth of bacteriophage T4, SV6 groEL673” value [5] was “− (no visible plaques (<10^−4))”, the “Effect of over-expression on bacteriophage T4 growth in groEL strains” value ([5]; groEL strains) was “allele-specific complementation” and the “Complementation of groEL mutant strains for bacteriophage λ growth” value [2] was “allele-specific complementation”. For the same molecule, the “Growth of bacteriophage λ, SV1 (groEL^+)” value [2] was “+++”, the “Growth of bacteriophage λ, SV2 groEL44” value [2] was “+++” and the “Growth of bacteriophage λ, SV3 GroEL59” value [2] was “− (no visible plaques (<10^−4))”. The “Growth of bacteriophage λ, SV6 groEL673” value [2] was “− (no visible plaques (<10^−4))”, the “Effect of over-expression on λ growth / plaque counts” value [2] was “no effect” and the “Relative colony forming ability, SV6 groEL673” value [3] was <10^−4. The “Relative colony forming ability, SV2 groEL44” value [4] was 5 × 10^−3.

B3: sht-GroEL(191-345): short histidine tail minichaperone, GroEL residues 191-345 (protein, UniProt P0A6F5 191-345, looked up, fragment)
chain: EGMQFDRGYLSPYFINKPETGAVELESPFILLADKKISNIREMLPVLEAVAKAGKPLLIIAEDVEGEALATLVVNTMRGIVKVAAVKAPGFGDRRKAMLQDIATLTGGTVISEEIGMELEKATLEDLGQAKRVVINKDTTTIIDGVGEEAAIQGR
modifications: short His tag
In the case of B3, the “Complementation of the groEL673 defect in SV6” value [3] is reported as “complemented”, the “Relative colony forming ability, SV6 groEL673” value [3] is reported as 0.07-0.09 and the “Relative colony forming ability, SV2 groEL44” value [4] is reported as 0.01-0.02.

B4: GroEL(191-345): GroEL(191-345) minichaperone monomer (protein, UniProt P0A6F5 191-345, looked up, fragment)
chain: B3 chain
modifications: apical domain
notes: GroEL(191-345) minichaperone monomer
In the case of B4, the cell death [6] is listed as “reduced cell death” and the “proportion of cells with inclusions / inclusion formation” value [6] is listed as “reduced slightly but significantly”.

B5: sht-GroEL(191-376): histidine-tagged (short histidine tail; sht) minichaperone GroEL(191-376) (protein, UniProt P0A6F5 191-376, looked up, fragment)
chain: EGMQFDRGYLSPYFINKPETGAVELESPFILLADKKISNIREMLPVLEAVAKAGKPLLIIAEDVEGEALATLVVNTMRGIVKVAAVKAPGFGDRRKAMLQDIATLTGGTVISEEIGMELEKATLEDLGQAKRVVINKDTTTIIDGVGEEAAIQGRVAQIRQQIEEATSDYDREKLQERVAKLAGGV
modifications: short His tag
In the case of B5, the “Growth of bacteriophage T4, SV1 (groEL^+)” value [5] is reported as “+++”, the “Growth of bacteriophage T4, SV2 groEL44” value [5] is reported as “− (no visible plaques (<10^−4))” and the “Growth of bacteriophage T4, SV3 GroEL59” value [5] is reported as “+++”. For the same molecule, the “Growth of bacteriophage T4, SV6 groEL673” value [5] was “− (no visible plaques (<10^−4))”, the “Growth of bacteriophage λ, SV1 (groEL^+)” value [2] was “+++” and the “Growth of bacteriophage λ, SV2 groEL44” value [2] was “− (no visible plaques (<10^−4))”. For the same molecule, the “Growth of bacteriophage λ, SV3 GroEL59” value [2] was “− (no visible plaques (<10^−4))”, the “Growth of bacteriophage λ, SV6 groEL673” value [2] was “− (no visible plaques (<10^−4))” and the “Plating ability, 0.00 % L(+)arabinose” value ([7]; 0.00% arabinose) was “−”. The “Plating ability, 0.01 % L(+)arabinose” value ([7]; 0.01% arabinose) was “+/− (≦5% of the colonies and size reduced relative to that in presence of 0.2% L(+)arabinose)”, the “Plating ability, 0.10 % L(+)arabinose” value ([7]; 0.10% arabinose) was “+ (about 30% of the colonies)” and the “Plating ability, 0.15 % L(+)arabinose” value ([7]; 0.15% arabinose) was “++ (about 50% of the colonies relative to that in presence of 0.2% L(+)arabinose)”. For the same molecule, the “Relative colony forming ability, SV6 groEL673” value [3] was <10^−4 and the “Relative colony forming ability, SV2 groEL44” value [4] was <10^−4.
